# Test results taken from paper PMC9482650, “Quantitative fragmentomics allow affinity mapping of interactomes” (Nature Communications, 2022).
# T1: SYNJ2BP, P57105
# T1 sequence (P57105 8-110, limits assumed, looked up): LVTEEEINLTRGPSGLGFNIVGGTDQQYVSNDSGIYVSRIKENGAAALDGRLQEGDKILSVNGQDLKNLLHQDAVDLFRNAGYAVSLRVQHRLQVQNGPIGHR
# T2: APBA1_1, Q02410
# T2 sequence (Q02410 651-752, limits assumed, looked up): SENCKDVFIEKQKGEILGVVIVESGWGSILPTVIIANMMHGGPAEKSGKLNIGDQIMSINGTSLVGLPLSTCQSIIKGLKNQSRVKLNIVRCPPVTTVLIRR
# T3: APBA1_2, Q02410
# T3 sequence (Q02410 742-832, limits assumed, looked up): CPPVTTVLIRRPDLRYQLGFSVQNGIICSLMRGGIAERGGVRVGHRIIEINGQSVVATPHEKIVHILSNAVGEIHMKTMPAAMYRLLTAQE
# T4: DLG3_2, Q92796
# T4 sequence (Q92796 221-321, limits assumed, looked up): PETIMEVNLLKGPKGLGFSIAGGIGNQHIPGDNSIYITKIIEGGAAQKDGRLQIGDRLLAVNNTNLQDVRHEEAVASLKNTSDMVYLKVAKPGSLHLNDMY
# T5: GRIP1_5, Q9Y3R0
# T5 sequence (Q9Y3R0 568-668, limits assumed, looked up): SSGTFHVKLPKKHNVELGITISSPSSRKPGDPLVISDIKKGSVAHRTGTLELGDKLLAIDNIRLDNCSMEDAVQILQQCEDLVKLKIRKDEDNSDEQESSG
# T6: MPP2, Q14168
# T6 sequence (Q14168 180-250, limits assumed, looked up): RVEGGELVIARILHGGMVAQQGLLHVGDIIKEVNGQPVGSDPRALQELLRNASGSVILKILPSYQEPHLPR
# T7: RHPN1, Q8TCX5
# T7 sequence (Q8TCX5 508-602, limits assumed, looked up): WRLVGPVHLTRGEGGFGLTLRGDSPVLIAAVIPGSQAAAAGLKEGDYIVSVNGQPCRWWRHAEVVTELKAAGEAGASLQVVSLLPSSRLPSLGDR
# T8: GRIP1_3, Q9Y3R0
# T8 sequence (Q9Y3R0 247-346, limits assumed, looked up): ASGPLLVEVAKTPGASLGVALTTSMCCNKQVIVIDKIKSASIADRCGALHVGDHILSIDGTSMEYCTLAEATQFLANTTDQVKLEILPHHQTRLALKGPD
# T9: NHERF3_3, Q5T2W1
# T9 sequence (Q5T2W1 238-333, limits assumed, looked up): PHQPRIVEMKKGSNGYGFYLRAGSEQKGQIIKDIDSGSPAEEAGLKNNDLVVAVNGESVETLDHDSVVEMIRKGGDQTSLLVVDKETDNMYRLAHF
# T10: NHERF3_1, Q5T2W1
# T10 sequence (Q5T2W1 4-100, limits assumed, looked up): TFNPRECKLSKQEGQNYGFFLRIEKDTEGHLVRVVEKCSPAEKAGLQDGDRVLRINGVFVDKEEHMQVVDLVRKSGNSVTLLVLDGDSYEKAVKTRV
# T11: LNX2_2, Q8N448
# T11 sequence (Q8N448 334-432, limits assumed, looked up): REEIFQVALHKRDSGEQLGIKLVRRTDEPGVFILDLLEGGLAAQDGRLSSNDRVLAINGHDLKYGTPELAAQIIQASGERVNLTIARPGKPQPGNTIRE
# T12: APBA2_1, Q99767
# T12 sequence (Q99767 563-664, limits assumed, looked up): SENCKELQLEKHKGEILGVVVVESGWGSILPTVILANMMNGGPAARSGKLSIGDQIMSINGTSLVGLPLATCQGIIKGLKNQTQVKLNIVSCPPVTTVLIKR
# B1: TMEM178B, H3BS89 (peptide)
# chain: KSRPENGTVC
# B2: TYRO3, Q06418 (peptide)
# chain: QQGLLPHSSC
# Target: T1, SYNJ2BP, P57105
# Assay: holdup assay
# Design: key: below the threshold = too weak to quantify, mostly under pKd 3.1 to 4
# Details: plain residues with an end cap or a label only (N-terminal biotin on a linker: ado-ado)
row,Binder,pKd
1,B1,3.93
2,B2,below the threshold

# Target: Inadl_8, Q8NI35
# Assay: holdup assay
# Design: key: below the threshold = too weak to quantify, mostly under pKd 3.1 to 4
# Details: plain residues with an end cap or a label only (N-terminal biotin on a linker: ado-ado)
# Chain of Inadl_8, Q8NI35 (Q8NI35 1425-1530): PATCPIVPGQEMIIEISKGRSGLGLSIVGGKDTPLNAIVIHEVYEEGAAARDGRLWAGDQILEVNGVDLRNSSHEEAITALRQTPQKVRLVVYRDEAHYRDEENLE
row,Binder,pKd
1,B1,below the threshold
2,B2,4.08

# Target: T2, APBA1_1, Q02410
# Assay: holdup assay
# Design: key: below the threshold = too weak to quantify, mostly under pKd 3.1 to 4
# Details: plain residues with an end cap or a label only (N-terminal biotin on a linker: ado-ado)
row,Binder,pKd
1,B1,below the threshold
2,B2,below the threshold

# Target: PICK1, Q9NRD5
# Assay: holdup assay
# Design: key: below the threshold = too weak to quantify, mostly under pKd 3.1 to 4
# Details: plain residues with an end cap or a label only (N-terminal biotin on a linker: ado-ado)
# Chain of PICK1, Q9NRD5 (Q9NRD5 17-115): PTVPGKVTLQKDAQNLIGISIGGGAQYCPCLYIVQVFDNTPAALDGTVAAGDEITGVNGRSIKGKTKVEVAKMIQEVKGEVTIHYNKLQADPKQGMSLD
row,Binder,pKd
1,B1,below the threshold
2,B2,below the threshold

# Target: GRID2IP_2, A4D2P6
# Assay: holdup assay
# Design: key: below the threshold = too weak to quantify, mostly under pKd 3.1 to 4
# Details: plain residues with an end cap or a label only (N-terminal biotin on a linker: ado-ado)
# Chain of GRID2IP_2, A4D2P6 (A4D2P6 272-370): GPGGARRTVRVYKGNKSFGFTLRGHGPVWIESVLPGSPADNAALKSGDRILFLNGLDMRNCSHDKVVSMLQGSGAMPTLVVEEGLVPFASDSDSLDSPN
row,Binder,pKd
1,B1,3.66
2,B2,3.75

# Target: GRIP2_4, Q9C0E4
# Assay: holdup assay
# Design: key: below the threshold = too weak to quantify, mostly under pKd 3.1 to 4
# Details: plain residues with an end cap or a label only (N-terminal biotin on a linker: ado-ado)
# Chain of GRIP2_4, Q9C0E4 (Q9C0E4 446-548): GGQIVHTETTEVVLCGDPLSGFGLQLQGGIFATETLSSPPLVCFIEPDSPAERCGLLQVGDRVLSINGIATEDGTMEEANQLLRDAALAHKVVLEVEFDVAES
row,Binder,pKd
1,B1,below the threshold
2,B2,below the threshold

# Target: MAGI1_1, Q96QZ7
# Assay: holdup assay
# Design: key: below the threshold = too weak to quantify, mostly under pKd 3.1 to 4
# Details: plain residues with an end cap or a label only (N-terminal biotin on a linker: ado-ado)
# Chain of MAGI1_1, Q96QZ7 (Q96QZ7 1-106): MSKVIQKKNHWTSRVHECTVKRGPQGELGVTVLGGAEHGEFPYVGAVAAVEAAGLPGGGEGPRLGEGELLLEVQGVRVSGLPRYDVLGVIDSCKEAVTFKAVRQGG
row,Binder,pKd
1,B1,below the threshold
2,B2,below the threshold

# Target: FRMPD3, Q5JV73
# Assay: holdup assay
# Design: key: below the threshold = too weak to quantify, mostly under pKd 3.1 to 4
# Details: plain residues with an end cap or a label only (N-terminal biotin on a linker: ado-ado)
# Chain of FRMPD3, Q5JV73 (Q5JV73 12-100): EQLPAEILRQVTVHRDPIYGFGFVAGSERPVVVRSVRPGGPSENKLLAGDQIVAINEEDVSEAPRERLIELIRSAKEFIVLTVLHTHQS
row,Binder,pKd
1,B1,below the threshold
2,B2,below the threshold

# Target: GRIP2_5, Q9C0E4
# Assay: holdup assay
# Design: key: below the threshold = too weak to quantify, mostly under pKd 3.1 to 4
# Details: plain residues with an end cap or a label only (N-terminal biotin on a linker: ado-ado)
# Chain of GRIP2_5, Q9C0E4 (Q9C0E4 544-642): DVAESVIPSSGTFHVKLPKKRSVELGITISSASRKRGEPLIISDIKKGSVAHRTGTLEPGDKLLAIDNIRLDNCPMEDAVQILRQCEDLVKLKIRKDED
row,Binder,pKd
1,B1,below the threshold
2,B2,below the threshold

# Target: PDLIM1, O00151
# Assay: holdup assay
# Design: key: below the threshold = too weak to quantify, mostly under pKd 3.1 to 4
# Details: plain residues with an end cap or a label only (N-terminal biotin on a linker: ado-ado)
# Chain of PDLIM1, O00151 (O00151 1-87): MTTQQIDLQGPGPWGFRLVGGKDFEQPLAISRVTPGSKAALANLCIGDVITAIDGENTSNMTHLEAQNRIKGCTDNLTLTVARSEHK
row,Binder,pKd
1,B1,below the threshold
2,B2,below the threshold

# Target: T3, APBA1_2, Q02410
# Assay: holdup assay
# Design: key: below the threshold = too weak to quantify, mostly under pKd 3.1 to 4
# Details: plain residues with an end cap or a label only (N-terminal biotin on a linker: ado-ado)
row,Binder,pKd
1,B1,below the threshold
2,B2,below the threshold

# Target: NOS1, P29475
# Assay: holdup assay
# Design: key: below the threshold = too weak to quantify, mostly under pKd 3.1 to 4
# Details: plain residues with an end cap or a label only (N-terminal biotin on a linker: ado-ado)
# Chain of NOS1, P29475 (P29475 9-101): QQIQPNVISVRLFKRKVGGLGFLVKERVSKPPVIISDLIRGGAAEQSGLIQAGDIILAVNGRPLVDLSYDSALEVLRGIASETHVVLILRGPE
row,Binder,pKd
1,B1,3.47
2,B2,below the threshold

# Target: T4, DLG3_2, Q92796
# Assay: holdup assay
# Design: key: below the threshold = too weak to quantify, mostly under pKd 3.1 to 4
# Details: plain residues with an end cap or a label only (N-terminal biotin on a linker: ado-ado)
row,Binder,pKd
1,B1,3.54
2,B2,below the threshold

# Target: T5, GRIP1_5, Q9Y3R0
# Assay: holdup assay
# Design: key: below the threshold = too weak to quantify, mostly under pKd 3.1 to 4
# Details: plain residues with an end cap or a label only (N-terminal biotin on a linker: ado-ado)
row,Binder,pKd
1,B1,below the threshold
2,B2,below the threshold

# Target: DLG4_1, P78352
# Assay: holdup assay
# Design: key: below the threshold = too weak to quantify, mostly under pKd 3.1 to 4
# Details: plain residues with an end cap or a label only (N-terminal biotin on a linker: ado-ado)
# Chain of DLG4_1, P78352 (P78352 62-152): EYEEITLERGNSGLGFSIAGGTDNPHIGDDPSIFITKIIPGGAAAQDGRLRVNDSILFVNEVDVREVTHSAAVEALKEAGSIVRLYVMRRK
row,Binder,pKd
1,B1,below the threshold
2,B2,below the threshold

# Target: HTRA1, Q92743
# Assay: holdup assay
# Design: key: below the threshold = too weak to quantify, mostly under pKd 3.1 to 4
# Details: plain residues with an end cap or a label only (N-terminal biotin on a linker: ado-ado)
# Chain of HTRA1, Q92743 (Q92743 360-477): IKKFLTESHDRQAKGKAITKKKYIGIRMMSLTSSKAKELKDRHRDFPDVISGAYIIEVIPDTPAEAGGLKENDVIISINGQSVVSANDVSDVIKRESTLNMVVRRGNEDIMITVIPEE
row,Binder,pKd
1,B1,4.32
2,B2,below the threshold

# Target: T6, MPP2, Q14168
# Assay: holdup assay
# Design: key: below the threshold = too weak to quantify, mostly under pKd 3.1 to 4
# Details: plain residues with an end cap or a label only (N-terminal biotin on a linker: ado-ado)
row,Binder,pKd
1,B1,below the threshold
2,B2,below the threshold

# Target: T7, RHPN1, Q8TCX5
# Assay: holdup assay
# Design: key: below the threshold = too weak to quantify, mostly under pKd 3.1 to 4
# Details: plain residues with an end cap or a label only (N-terminal biotin on a linker: ado-ado)
row,Binder,pKd
1,B1,below the threshold
2,B2,below the threshold

# Target: DLG2_3, Q15700
# Assay: holdup assay
# Design: key: below the threshold = too weak to quantify, mostly under pKd 3.1 to 4
# Details: plain residues with an end cap or a label only (N-terminal biotin on a linker: ado-ado)
row,Binder,pKd
1,B1,below the threshold
2,B2,below the threshold

# Target: IL16_3, Q14005
# Assay: holdup assay
# Design: key: below the threshold = too weak to quantify, mostly under pKd 3.1 to 4
# Details: plain residues with an end cap or a label only (N-terminal biotin on a linker: ado-ado)
# Chain of IL16_3, Q14005 (Q14005 1107-1207): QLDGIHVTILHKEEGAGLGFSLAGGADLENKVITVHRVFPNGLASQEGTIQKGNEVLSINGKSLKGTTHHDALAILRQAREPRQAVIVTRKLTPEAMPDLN
row,Binder,pKd
1,B1,below the threshold
2,B2,below the threshold

# Target: T8, GRIP1_3, Q9Y3R0
# Assay: holdup assay
# Design: key: below the threshold = too weak to quantify, mostly under pKd 3.1 to 4
# Details: plain residues with an end cap or a label only (N-terminal biotin on a linker: ado-ado)
row,Binder,pKd
1,B1,below the threshold
2,B2,below the threshold

# Target: T9, NHERF3_3, Q5T2W1
# Assay: holdup assay
# Design: key: below the threshold = too weak to quantify, mostly under pKd 3.1 to 4
# Details: plain residues with an end cap or a label only (N-terminal biotin on a linker: ado-ado)
row,Binder,pKd
1,B1,below the threshold
2,B2,below the threshold

# Target: DLG4_2, P78352
# Assay: holdup assay
# Design: key: below the threshold = too weak to quantify, mostly under pKd 3.1 to 4
# Details: plain residues with an end cap or a label only (N-terminal biotin on a linker: ado-ado)
# Chain of DLG4_2, P78352 (P78352 155-259): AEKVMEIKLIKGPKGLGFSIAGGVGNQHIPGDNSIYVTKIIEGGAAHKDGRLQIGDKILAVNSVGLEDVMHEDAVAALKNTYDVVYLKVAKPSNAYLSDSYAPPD
row,Binder,pKd
1,B1,below the threshold
2,B2,below the threshold

# Target: T10, NHERF3_1, Q5T2W1
# Assay: holdup assay
# Design: key: below the threshold = too weak to quantify, mostly under pKd 3.1 to 4
# Details: plain residues with an end cap or a label only (N-terminal biotin on a linker: ado-ado)
row,Binder,pKd
1,B1,3.62
2,B2,below the threshold

# Target: T11, LNX2_2, Q8N448
# Assay: holdup assay
# Design: key: below the threshold = too weak to quantify, mostly under pKd 3.1 to 4
# Details: plain residues with an end cap or a label only (N-terminal biotin on a linker: ado-ado)
row,Binder,pKd
1,B1,4.32
2,B2,below the threshold

# Target: T12, APBA2_1, Q99767
# Assay: holdup assay
# Design: key: below the threshold = too weak to quantify, mostly under pKd 3.1 to 4
# Details: plain residues with an end cap or a label only (N-terminal biotin on a linker: ado-ado)
row,Binder,pKd
1,B1,below the threshold
2,B2,below the threshold
